The results in this text go back to paper PMC9055814.

B1: SlGA3ox2 probe P1 (dsDNA)
DNA 1: GCACTTAAGATCATAATTAATGATTTCAGTTACCGCAATAAAATG
DNA 2: CATTTTATTGCGGTAACTGAAATCATTAATTATGATCTTAAGTGC
B2: SlGA3ox2 probe P4 (dsDNA)
DNA 1: CTATAATTGAATTGAATTCAGTTAACTGTCGAAATTGGAATGGTA
DNA 2: TACCATTCCAATTTCGACAGTTAACTGAATTCAATTCAATTATAG
B3: SlGA3ox2 probe P2 (dsDNA)
DNA 1: CAATTATTTGTCAATATTTGGTTAAATACTTGTTTAATAGTATAC
DNA 2: GTATACTATTAAACAAGTATTTAACCAAATATTGACAAATAATTG
B4: SlGA3ox2 probe P3 (dsDNA)
DNA 1: CCCATACAACTTTGCGATGTTAATGGTTATAACTATAAAGGGAGA
DNA 2: TCTCCCTTTATAGTTATAACCATTAACATCGCAAAGTTGTATGGG
B5: SlGA3ox1 probe P5 (dsDNA)
DNA 1: TTAACAAAGACAAATTAGTTGATTGGTTAAAGACAATCAATATGT
DNA 2: ACATATTGATTGTCTTTAACCAATCAACTAATTTGTCTTTGTTAA

In this data set the target is SlGAMYB2-GST (Solanum lycopersicum, UniProt A0A3Q7H2U6 1-504). In words: EMSA. A general note: Mobility shift assays separate free from complexed probe on a gel.
Consider B1, for which the binding result is recorded as “no binding”.

With B2, the binding result is given as “no binding”.

B3: the binding result is listed as “binds”.

For B4, the binding result is “binds”.

B5: the binding result is “no binding”.
